According to paper doi:10.1101/251942:

Biological target: Brucella adipic acid activated regulator (BaaR), residues 21-284 (Brucella abortus)
Experiment: crystal structure

For “Brucella adipic acid activated regulator (BaaR), residues 21-284 (domain or fragment)”, which stoichiometry N is on record?
Its stoichiometry N is 2.
